Experimental data from US20230174622A1.

Biological target: eEGFRt (modified EGFRt on edited T cells; variant not specified) (human)
Assay: cell-based or functional assay

Substance: αEGFR-SAP immunotoxin (biotinylated Cetuximab antibody combined with streptavidin-SAP conjugate, 1:1 molar ratio)
- depletion of EGFRt-expressing lymphocytes after 3 days in vitro (flow cytometry), 5 nM and 1 nM: 50%
- reduction of eEGFRt+ cells after in vitro treatment (flow cytometry): 1.8 fold
